# Data reported in article PMC10786891, “Massively parallel profiling of RNA-targeting CRISPR-Cas13d”.
# T1: EsCas13d, nuclease-dead (Eubacterium siraeum, UniProt B0MS50, R295A;H300A;R849A;H854A)
# T1 sequence: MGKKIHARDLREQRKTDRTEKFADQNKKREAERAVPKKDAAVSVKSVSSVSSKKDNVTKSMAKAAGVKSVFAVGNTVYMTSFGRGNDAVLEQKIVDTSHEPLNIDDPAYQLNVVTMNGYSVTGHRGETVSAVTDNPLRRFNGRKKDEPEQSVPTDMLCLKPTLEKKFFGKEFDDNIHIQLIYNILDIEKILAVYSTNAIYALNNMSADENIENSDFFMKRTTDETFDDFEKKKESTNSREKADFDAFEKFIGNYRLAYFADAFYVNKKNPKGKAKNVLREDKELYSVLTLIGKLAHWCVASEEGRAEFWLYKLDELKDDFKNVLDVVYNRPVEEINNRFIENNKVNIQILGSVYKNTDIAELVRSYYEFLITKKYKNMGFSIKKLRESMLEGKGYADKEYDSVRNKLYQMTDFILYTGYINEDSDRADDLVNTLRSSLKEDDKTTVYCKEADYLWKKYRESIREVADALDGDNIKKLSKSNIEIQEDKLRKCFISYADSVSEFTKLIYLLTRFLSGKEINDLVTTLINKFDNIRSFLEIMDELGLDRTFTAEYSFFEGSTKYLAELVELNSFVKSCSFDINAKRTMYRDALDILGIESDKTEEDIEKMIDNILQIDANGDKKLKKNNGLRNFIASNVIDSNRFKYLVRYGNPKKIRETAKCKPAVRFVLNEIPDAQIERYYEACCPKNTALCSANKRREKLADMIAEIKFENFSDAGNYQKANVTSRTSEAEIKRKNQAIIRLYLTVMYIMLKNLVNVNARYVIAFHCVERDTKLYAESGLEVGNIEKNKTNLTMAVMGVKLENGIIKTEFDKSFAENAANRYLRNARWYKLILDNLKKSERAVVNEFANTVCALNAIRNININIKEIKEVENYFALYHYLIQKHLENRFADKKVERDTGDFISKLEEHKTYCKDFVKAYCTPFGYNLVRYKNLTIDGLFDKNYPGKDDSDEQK
# Target: T1, EsCas13d, nuclease-dead
# Experiment: crRNA (strand 1, pre-loaded); Mg2+; 40 mM Tris-HCl pH 7.5, 150 mM NaCl, 6 mM MgCl2, 1 mM DTT, 0.1% Tween-20, 0.2 mg/ml BSA; 25 C; 10 min per concentration, then washed
# Conditions: tags: His6-TwinStrep-SUMO cleaved; N-terminal SNAP kept (SNAP-Surface 488); label: 3' end held by stalled T7 RNA polymerase
row,Binder,Kd [nM]
1,"target 1 A1G,C7A (mixed) RNA 1: CACCCGUGCAAAAAUGCAGGGGUCUAAAACUGAGCGGAUAACCUCUCUAUGG RNA 2: GGGAAUGGAUCCACAUCUACGAAUUCGUACCAUAGAGAGGUUAUACGCUCGCCGAGAUCGGAAGAGCACACGU",8.7 ± 0.5
2,"target 1 C6U,A18G (mixed) RNA 1: CACCCGUGCAAAAAUGCAGGGGUCUAAAACUGAGCGGAUAACCUCUCUAUGG RNA 2: GGGAAUGGAUCCACAUCUACGAAUUCGUACCAUGGAGAGGUUAUCUGCUCACCGAGAUCGGAAGAGCACACGU",54 ± 18
3,"target 1 U3A,C7U (mixed) RNA 1: CACCCGUGCAAAAAUGCAGGGGUCUAAAACUGAGCGGAUAACCUCUCUAUGG RNA 2: GGGAAUGGAUCCACAUCUACGAAUUCGUACCAUAGAGAGGUUAUUCGCACACCGAGAUCGGAAGAGCACACGU",5.4 ± 0.4
4,"target 1 C4G,G13A (mixed) RNA 1: CACCCGUGCAAAAAUGCAGGGGUCUAAAACUGAGCGGAUAACCUCUCUAUGG RNA 2: GGGAAUGGAUCCACAUCUACGAAUUCGUACCAUAGAGAAGUUAUCCGGUCACCGAGAUCGGAAGAGCACACGU",7.3 ± 0.9
5,"target 1 insU 3' of 7,insC 3' of 5 (mixed) RNA 1: CACCCGUGCAAAAAUGCAGGGGUCUAAAACUGAGCGGAUAACCUCUCUAUGG RNA 2: GGGAAUGGAUCCACAUCUACGAAUUCGUACCAUAGAGAGGUUAUCUCGCCUCACCGAGAUCGGAAGAGCACACGU",12.5 ± 0.5
6,"target 1 insC 3' of 12,insA 3' of 3 (mixed) RNA 1: CACCCGUGCAAAAAUGCAGGGGUCUAAAACUGAGCGGAUAACCUCUCUAUGG RNA 2: GGGAAUGGAUCCACAUCUACGAAUUCGUACCAUAGAGAGGCUUAUCCGCUACACCGAGAUCGGAAGAGCACACGU",9.3 ± 0.8
7,"target 1 insC 3' of 14,insC 3' of 13 (mixed) RNA 1: CACCCGUGCAAAAAUGCAGGGGUCUAAAACUGAGCGGAUAACCUCUCUAUGG RNA 2: GGGAAUGGAUCCACAUCUACGAAUUCGUACCAUAGAGACGCGUUAUCCGCUCACCGAGAUCGGAAGAGCACACGU",53 ± 9
8,"target 1 insC 3' of 20,insA 3' of 19 (mixed) RNA 1: CACCCGUGCAAAAAUGCAGGGGUCUAAAACUGAGCGGAUAACCUCUCUAUGG RNA 2: GGGAAUGGAUCCACAUCUACGAAUUCGUACCACUAAGAGAGGUUAUCCGCUCACCGAGAUCGGAAGAGCACACGU",9.1 ± 1
9,"target 1 C4G,U8C (mixed) RNA 1: CACCCGUGCAAAAAUGCAGGGGUCUAAAACUGAGCGGAUAACCUCUCUAUGG RNA 2: GGGAAUGGAUCCACAUCUACGAAUUCGUACCAUAGAGAGGUUACCCGGUCACCGAGAUCGGAAGAGCACACGU",4.64 ± 0.25
10,"target 1 insA 3' of 13,insA 3' of 8 (mixed) RNA 1: CACCCGUGCAAAAAUGCAGGGGUCUAAAACUGAGCGGAUAACCUCUCUAUGG RNA 2: GGGAAUGGAUCCACAUCUACGAAUUCGUACCAUAGAGAGAGUUAUACCGCUCACCGAGAUCGGAAGAGCACACGU",4.8 ± 0.23
11,"target 1 insG 3' of 22,insA 3' of 15 (mixed) RNA 1: CACCCGUGCAAAAAUGCAGGGGUCUAAAACUGAGCGGAUAACCUCUCUAUGG RNA 2: GGGAAUGGAUCCACAUCUACGAAUUCGUACGCAUAGAGAAGGUUAUCCGCUCACCGAGAUCGGAAGAGCACACGU",17.2 ± 1.6
12,"target 1 insA 3' of 22,insG 3' of 3 (mixed) RNA 1: CACCCGUGCAAAAAUGCAGGGGUCUAAAACUGAGCGGAUAACCUCUCUAUGG RNA 2: GGGAAUGGAUCCACAUCUACGAAUUCGUACACAUAGAGAGGUUAUCCGCUGCACCGAGAUCGGAAGAGCACACGU",10.8 ± 0.8
13,"target 1 insA 3' of 13,insC 3' of 8 (mixed) RNA 1: CACCCGUGCAAAAAUGCAGGGGUCUAAAACUGAGCGGAUAACCUCUCUAUGG RNA 2: GGGAAUGGAUCCACAUCUACGAAUUCGUACCAUAGAGAGAGUUAUCCCGCUCACCGAGAUCGGAAGAGCACACGU",6.4 ± 0.8
14,"target 1 insA 3' of 17,insU 3' of 13 (mixed) RNA 1: CACCCGUGCAAAAAUGCAGGGGUCUAAAACUGAGCGGAUAACCUCUCUAUGG RNA 2: GGGAAUGGAUCCACAUCUACGAAUUCGUACCAUAGAAGAGUGUUAUCCGCUCACCGAGAUCGGAAGAGCACACGU",22 ± 4
15,"target 1 insC 3' of 14,insU 3' of 6 (mixed) RNA 1: CACCCGUGCAAAAAUGCAGGGGUCUAAAACUGAGCGGAUAACCUCUCUAUGG RNA 2: GGGAAUGGAUCCACAUCUACGAAUUCGUACCAUAGAGACGGUUAUCCUGCUCACCGAGAUCGGAAGAGCACACGU",53 ± 25
16,"target 1 C2A,G15A (mixed) RNA 1: CACCCGUGCAAAAAUGCAGGGGUCUAAAACUGAGCGGAUAACCUCUCUAUGG RNA 2: GGGAAUGGAUCCACAUCUACGAAUUCGUACCAUAGAAAGGUUAUCCGCUAACCGAGAUCGGAAGAGCACACGU",20.2 ± 0.9
17,"target 1 U3C,U11G (mixed) RNA 1: CACCCGUGCAAAAAUGCAGGGGUCUAAAACUGAGCGGAUAACCUCUCUAUGG RNA 2: GGGAAUGGAUCCACAUCUACGAAUUCGUACCAUAGAGAGGGUAUCCGCCCACCGAGAUCGGAAGAGCACACGU",35 ± 4
18,"target 1 C2U,C22U (mixed) RNA 1: CACCCGUGCAAAAAUGCAGGGGUCUAAAACUGAGCGGAUAACCUCUCUAUGG RNA 2: GGGAAUGGAUCCACAUCUACGAAUUCGUAUCAUAGAGAGGUUAUCCGCUUACCGAGAUCGGAAGAGCACACGU",26 ± 6
19,"target 1 C6A,A16U (mixed) RNA 1: CACCCGUGCAAAAAUGCAGGGGUCUAAAACUGAGCGGAUAACCUCUCUAUGG RNA 2: GGGAAUGGAUCCACAUCUACGAAUUCGUACCAUAGUGAGGUUAUCAGCUCACCGAGAUCGGAAGAGCACACGU",44 ± 4
20,"target 1 insC 3' of 19,insC 3' of 15 (mixed) RNA 1: CACCCGUGCAAAAAUGCAGGGGUCUAAAACUGAGCGGAUAACCUCUCUAUGG RNA 2: GGGAAUGGAUCCACAUCUACGAAUUCGUACCAUCAGAGCAGGUUAUCCGCUCACCGAGAUCGGAAGAGCACACGU",45 ± 5
21,"target 1 U3C,C4U (mixed) RNA 1: CACCCGUGCAAAAAUGCAGGGGUCUAAAACUGAGCGGAUAACCUCUCUAUGG RNA 2: GGGAAUGGAUCCACAUCUACGAAUUCGUACCAUAGAGAGGUUAUCCGUCCACCGAGAUCGGAAGAGCACACGU",49 ± 8
22,"target 1 insA 3' of 5,insA 3' of 5 (mixed) RNA 1: CACCCGUGCAAAAAUGCAGGGGUCUAAAACUGAGCGGAUAACCUCUCUAUGG RNA 2: GGGAAUGGAUCCACAUCUACGAAUUCGUACCAUAGAGAGGUUAUCCGAACUCACCGAGAUCGGAAGAGCACACGU",8.5 ± 0.7
23,"target 1 insA 3' of 15,insA 3' of 6 (mixed) RNA 1: CACCCGUGCAAAAAUGCAGGGGUCUAAAACUGAGCGGAUAACCUCUCUAUGG RNA 2: GGGAAUGGAUCCACAUCUACGAAUUCGUACCAUAGAGAAGGUUAUCCAGCUCACCGAGAUCGGAAGAGCACACGU",14.4 ± 1.4
24,"target 1 insU 3' of 21,insU 3' of 12 (mixed) RNA 1: CACCCGUGCAAAAAUGCAGGGGUCUAAAACUGAGCGGAUAACCUCUCUAUGG RNA 2: GGGAAUGGAUCCACAUCUACGAAUUCGUACCUAUAGAGAGGUUUAUCCGCUCACCGAGAUCGGAAGAGCACACGU",21.5 ± 1.3
25,"target 1 U3A,G15A (mixed) RNA 1: CACCCGUGCAAAAAUGCAGGGGUCUAAAACUGAGCGGAUAACCUCUCUAUGG RNA 2: GGGAAUGGAUCCACAUCUACGAAUUCGUACCAUAGAAAGGUUAUCCGCACACCGAGAUCGGAAGAGCACACGU",20 ± 4
26,"target 1 U3G,C4G (mixed) RNA 1: CACCCGUGCAAAAAUGCAGGGGUCUAAAACUGAGCGGAUAACCUCUCUAUGG RNA 2: GGGAAUGGAUCCACAUCUACGAAUUCGUACCAUAGAGAGGUUAUCCGGGCACCGAGAUCGGAAGAGCACACGU",5.2 ± 0.4
27,"target 1 insU 3' of 21,insC 3' of 8 (mixed) RNA 1: CACCCGUGCAAAAAUGCAGGGGUCUAAAACUGAGCGGAUAACCUCUCUAUGG RNA 2: GGGAAUGGAUCCACAUCUACGAAUUCGUACCUAUAGAGAGGUUAUCCCGCUCACCGAGAUCGGAAGAGCACACGU",71 ± 15
28,"target 1 insG 3' of 10,insG 3' of 4 (mixed) RNA 1: CACCCGUGCAAAAAUGCAGGGGUCUAAAACUGAGCGGAUAACCUCUCUAUGG RNA 2: GGGAAUGGAUCCACAUCUACGAAUUCGUACCAUAGAGAGGUUGAUCCGCGUCACCGAGAUCGGAAGAGCACACGU",35 ± 7
